Test results reported in patent publication US20060191037, “Plant transcription factor that is involved in sugar signalling” (published 2006).

Experiments:
Settings in all cases: tags: N-terminal His-tag (pET-15b, E. coli BL21(DE3))
[1] = target: T1, SUSIBA2 (WRKY transcription factor; purified fraction with 70 and 68 kDa forms) (Hordeum vulgare, UniProt Q6VWJ6 Q6VWJ6:1-573); assay: EMSA; two complexes, attributed to 70 and 68 kDa forms
[2] = target: T1, SUSIBA2 (WRKY transcription factor; …); assay: EMSA; strong binding
Source text: (§1) The 822-bp long SphI/HaeII fragment, encompassing SP8a and flanking sequences, as well as the 437-bp long BspHI/HaeII fragment, containing SP8a and downstream flanking sequence, formed prominent DNA-protein complexes with the purified SUSIBA2 fraction. Much to our surprise, however, the 510-bp long SphI/BsaI fragment, containing SP8a and upstream flanking sequence, bound only very poorly to SUSIBA2. We concluded that, in fact, the target for SUSIBA2 in the iso1 promoter is not SP8a but one or more sites downstream of the SP8a element. […] To follow up on this observation, we carried out EMSAs with oligonucleotides consisting of the iso1 SURE sequence.
(§2) EMSAs were carried out essentially as described by Sun et al. (1999). The competitor probes were prepared by annealing different non-labeled oligonucleotides in 14 mM Tris-HCl (pH 8.0), 7 mM MgCl₂.

[3] = target: T1, SUSIBA2 (WRKY transcription factor; …); assay: EMSA; binding negligible
Source text: as §1, §2

T1 sequence (Q6VWJ6 whole entry, one chain of several): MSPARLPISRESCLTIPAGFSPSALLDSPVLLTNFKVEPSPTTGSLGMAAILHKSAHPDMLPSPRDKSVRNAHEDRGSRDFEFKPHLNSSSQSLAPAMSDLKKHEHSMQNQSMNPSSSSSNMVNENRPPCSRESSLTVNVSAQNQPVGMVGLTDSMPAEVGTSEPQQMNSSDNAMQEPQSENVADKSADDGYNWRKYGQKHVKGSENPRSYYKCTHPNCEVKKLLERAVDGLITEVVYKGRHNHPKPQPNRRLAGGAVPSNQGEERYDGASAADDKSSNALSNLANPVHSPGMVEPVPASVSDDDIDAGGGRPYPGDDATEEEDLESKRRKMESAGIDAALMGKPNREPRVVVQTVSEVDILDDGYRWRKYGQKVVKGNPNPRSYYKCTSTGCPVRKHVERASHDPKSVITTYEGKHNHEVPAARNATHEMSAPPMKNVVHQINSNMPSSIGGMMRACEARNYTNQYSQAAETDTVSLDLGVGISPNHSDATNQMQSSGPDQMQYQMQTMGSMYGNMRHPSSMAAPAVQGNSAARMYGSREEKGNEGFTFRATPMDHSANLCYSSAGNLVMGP

B1: iso1 W box oligonucleotide (dsDNA)
DNA 1: TCGCTAACCAGTGACTTCCACGTTTCATCATTTATT
DNA 2: AATAAATGATGAAACGTGGAAGTCACTGGTTAGCGA
**Q.** Does B1 bind [1]?
**A.** binds

B2: iso1 SURE (SURE-b) oligonucleotide (dsDNA)
DNA 1: GGAAAACCGAAATACCAAAAAATAATAATAAAATAATAAT
DNA 2: ATTATTATTTTATTATTATTTTTTGGTATTTCGGTTTTCC
**Q.** Does B2 bind [2]?
**A.** binds

B3: iso1 SP8a oligonucleotide (dsDNA)
DNA 1: CCCTCGTGGAAGCAAAACTGTGTTTCTCGC
DNA 2: GCGAGAAACACAGTTTTGCTTCCACGAGGG
**Q.** Does B3 bind [3]?
**A.** no binding
